This is an account of results in publication PMC3871700, “Unusual N-Prenylation in Diazepinomicin Biosynthesis: The Farnesylation of a Benzodiazepine Substrate Is Catalyzed by a New Member of the ABBA Prenyltransferase Superfamily” (PLoS ONE, 2013).

Experiment in all cases: purified protein
Substrate in series [1]: CC(C)=CCC/C(C)=C/CC/C(C)=C/CO[P@@](=O)(O)OP(=O)(O)O
Conditions: […],6-DHN as co-substrate; Mg2+ stimulates but is not required.

Substrate in series [2]: CC(C)=CCC/C(C)=C/COP(=O)(O)OP(=O)(O)O
The settings on record: […],6-DHN as co-substrate; Mg2+ stimulates but is not required.

Substrate in series [3]: Oc1ccc2c(O)cccc2c1
It counts as biochemical, Streptomyces griseoflavus. Conditions: FPP as co-substrate; Mg2+ stimulates but is not required.

Substrate in series [4]: O=C1Nc2ccccc2Nc2ccccc21
The series is classed as biochemical, Micromonospora sp. RV115. The settings on record: FPP as co-substrate; Mg2+ stimulates but is not required.

Substrate in series [5]: Oc1ccc2c(O)cccc2c1
It counts as biochemical, Micromonospora sp. RV115. The settings on record: FPP as co-substrate; Mg2+ stimulates but is not required.

B1: Ssrg_00986 (Streptomyces griseoflavus Tu4000) (protein)
chain: MSGTSEADEICSAVTETAGRLGIAFSRDKVWPILSAYGDAFAHAMPLAFRMATGPQHAGDVDCRFITHPKDRNPYPLAVSKGLTPKTSHPVGTLLSEIEERFPIDGYGIDFGVVNGFTKVYAGFAPQDLQNASKLVEIPAMPRSLAGNFDFFVRHGLDDKVAFVAVDYLHRTVNVYFNDVPAACFESDGIRRMLRDLGLPGPSDRMLGIGGQAFGLYITLNWDSPAIERFCFGVTTTDLSSLPVSIEPQLEKFAHCVPYGGADRKFVYGVAAAPEGEYYKLETHYKWNPGTVAFI
notes: His8-tagged Ssrg_00986 (295 amino acids)
For the protein B1, the Km in “purified protein [1]” and in the series “purified protein [2]” was 45 µM each time. The K0.5 in “purified protein [3]” is 96 ± 11 µM.

B2: DzmP (Micromonospora sp. RV115) (protein)
chain: MSGTPEVAELYSTIEESARQLDVPCSRDRVWPVLSAYGDAFAHPEAVVAFRVATALRHAGELDCRFRTHPDDRDPYASAIARGLTPRTDHPIGGLLAEVHRRCPVESHGIDFGVVGGFKKIYAAFAPDELQVASVLAGIPAMPRSLAANAGFFTRHGLDDRVGVLGFDYPARTVNVYFNDVPRECFEPETIRSTLRRTGMAEPSEQMLRLGAGAFGLYVTLGWDSPEIERICYAAATTDLTTLPVPVEPEIEKFVKSVPYGGGDRKFVYGVALTPKGEYYKLESHYKWKPGAVNFI
notes: His8-tagged DzmP (296 amino acids)
In the case of B2, the Km – broadly, the concentration of substrate that gives half-maximal velocity – in “purified protein [1]” is reported as 20 µM; in the series “purified protein [2]” it was 4.9 ± 0.9 µM; in “purified protein [4]”, 133 ± 30 µM. Also, the K0.5 in the series “purified protein [5]” worked out at 18 ± 1 µM.
